Measured values as given in patent publication US6984382 (dated 2006).

Target: T1, purified extracellular domain of the erbB-2 protein (human, UniProt P04626 23-652)
T1 construct: extracellular domain; also called erbB-2^ecd; soluble erbB-2 receptor
Experiment: flow cytometry
Protocol: Cell surface expression and erbB-2 receptor binding ability of the scFv(FRP5):hinge:ζ protein in transduced C196 CTL and in transduced Jurkat cells are confirmed by flow cytometry.
Single-cell suspensions of 5 ×10^5 viable cells (Jurkat cells, JFYZ.4 cells, C196 cells, CFYZ.1 cells) are stained with the purified extracellular domain of the erbB-2 protein (erbB-2^ecd, expressed in Sf9 insect cells using a baculovirus expression vector; Disis et al., Cancer Res. 54, 16–20 (1994)) for 1 hour followed by the FITC-conjugated anti-erbB-2 monoclonal antibody FSP77 (European patent application EP-A-502 812) for 45 min at 4° C. in 100 µl PBS containing 1% BSA and 0.1% sodium azide. FSP77 also is specific for the extracellular domain of the erbB-2 receptor, but recognizes a different epitope from mAb FRP5 (I. M. Harwerth et al., J. Biol. Chem. 21, 15160–15167 (1992)).

B1: scFv(FRP5):hinge:ζ protein (receptor)
chain: QIQLVQSGPELKKPGETVKISCKASGYPFTNYGMNWVKQAPGQGLKWMGWINTSTGESTFADDFKGRFDFSLETSANTAYLQINNLKSEDMATYFCARWEVYHGYVPYWGQGTTVTVSSGGGGSGGGGSGGGGSDIQLTQSHKFLSTSVGDRVSITCKASQDVYNAVAWYQQKPGQSPKLLIYSASSRYTGVPSRFTGSGSGPDFTFTISSVQAEDLAVYFCQQHFRTPFTFGSGTKLEIKALEISNSVMYFSSVVPVLQKVNSTTTKPVLRTPSPVHPTGTSQPQRPEDCRPRGSVKGTGLDFLEDPKLCYLLDGILFIYGVIITALYLRAKFSRSAETAANLQDPNQLYNELNLGRREEYDVLEKKRARDPEMGGKQQRRRNPQEGVYNALQKDKMAEAYSEIGTKGERRRGKGHDGLYQGLSTATKDTYDALHMQTLAPR
notes: Stood on the surface of transduced murine CTL C196 (clone CFYZ.1) and human Jurkat cells (clone JFYZ.4); On cells it is found as disulfide-linked homodimers and as heterodimers with endogenous ζ; also called scFv(FRP5):hinge:zeta; scFv:hinge:ζ
- binding result: binds
